Results reported in article PMC8262983.

Biological target: recombinant 6×His-HSP70 (P. falciparum)

B1: recombinant 6×His-HSP40 (natural protein)
chain: MFFSSGFPFDSMGGQQARRKREVNNNKFYEVLNLKKNCTTDEVKKAYRKLAIIHHPDKGGDPEKFKEISRAYEVLSDEEKRKLYDEYGEEGLENGEQPADATDLFDFILNAGKGKKKRGEDIVSEVKVTLEQLYNGATKKLAISKDIICTNCEGHGGPKDAKVDCKQCNGRGTKTYMRYHSSVLHQTEVTCNTCRGKGKIFNEKDKCANCKGMCVLKTRKIIEVYIPKGAPNKHKIVFNGEADEKPNVITGNLVVILNEKQHPVFRREGIDLFMNYKISLYESLTGFVAEVTHLDERKILVNCTNSGFIRHGDIREVLDEGMPTYKDPFKKGNLYITFEVEYPMDLIITNENKEVLKILKKQNEVEKKYDLENSELEVVSCSPVDKEYIKVRVTKQQQQQQQEAYDDEDHQPEMEGGRVACAQQ
For B1, the ATPase activity of HSP70 (EnzChek phosphate assay; 45 μg HSP70 with 8.9 μg HSP40 against HSP70 alone) was 3 fold.
